{
  "source": "patent US7193044B1",
  "about": "“Compounds and methods for regulating apoptosis, and methods of making and screening for compounds that regulate apoptosis” (Immunogen, Inc., priority 2000, dated 2007)",
  "key": {"[1]": {"tested_on": "BAD phosphorylation in COS-7 cells", "experiment": "BAD phosphorylation in COS-7 cells (western blot band-shift)", "type": "cell-based", "details": "anti-HA western blot", "text": "Mouse FL5.12 cells were then transfected with the expression vector encoding the shorter murine BAD of SEQ ID NO:3 or one of the three BAD mutants. Total mRNA was isolated from the transfected FL5.12 cells, and reverse transcribed into cDNA. The cDNA was then subcloned into the expression vector pcDNA3 so that the amino acid sequence of the BAD or mutant BAD, encoded by the subcloned cDNA, was in-frame and operably linked to an N-terminal hemagglutinin (“HA”) epitope encoded by the expression vector. The expression vectors encoding the HA-tagged shorter murine BAD and mutant BAD were expressed in COS-7 cells. Whole cell lysates (“WCL”) were then prepared from the COS-7 cells expressing the polypeptides. The phosphorylation of the shorter murine BAD of SEQ ID NO:3 and mutant BAD were detected by a western blot of the WCL, probed with an anti-HA antibody (“anti-HA antibody”). […] Of note, each of the BAD mutants resolved as a doublet on a 16% SDS-PAGE, even though in the amino acid sequence of each of the BAD mutants one or both of the serines corresponding to Ser112 and Ser136 were mutated, i.e., substituted with alanine. […]"}, "HeLa cells [2]": {"tested_on": "HeLa cells", "experiment": "Fluorescence-based beta-galactosidase assay of BAD-induced cell death in transfected HeLa cells", "design": "species or system human", "details": "compared to wild-type BAD", "experimental": "FIG. 12(B) is a graphic representation of the results of a β-galactosidase assay. HeLa cells were co-transfected with the β-galactosidase gene and either HA-BAD (“WT”), HA-BAD S155A (“S155A”), HA-BAD S112A/S136A (“S112A/S136A”) or HA-BAD S112A/S136A/S155A (“AAA”). Transfected cells were then cultured in serum-free medium (SFM) or SFM supplemented with EGF (SFM+EGF) for 12 hours. Cell lysates were prepared and BAD-induced cell death was measured by the loss of β-galactosidase activity in a fluorescence-based assay. Fluorescence was measured at 465 nm. Results shown are the average and standard deviation of triplicate transfections (this experiment was repeated two more times with similar results). Expression levels of HA-tagged BAD and BAD mutants in transfected cell lysates were detected by anti-HA western blot analysis: HA-BAD (“WT”), HA-BAD S155A (“A”), HA-BAD S112A/S136A (“AA”), and HA-BAD S112A/S136A/S155A (“AAA”).\nFIG. 12(C) is a graphic representation of the results of a β-galactosidase assay. HeLa cells were co-transfected with the β-galactosidase gene and either an empty vector (“CTL”), wild-type BAD (“WT”), the BAD S155A mutant (“S155A”) or the BAD S155D mutant (“S155D”). Cell lysates were prepared and BAD-induced cell death was measured by the loss of β-galactosidase activity in a fluorescence-based assay. Fluorescence was measured at 465 nm. Results shown are the average and standard deviation of triplicate transfections (this experiment was repeated two more times with similar results).\nHeLa cells were co-transfected with the β-galactosidase gene and either wild-type BAD, BAD S155A, BAD S112A/S136A or BAD S112A/S136A/S155A. […] Cell lysates were prepared and BAD-induced cell death was measured by the loss of β-galactosidase activity in a fluorescence-based assay. […]\nTo measure β-gal activity, HeLa cells were plated in 12-well plates at 5×10^4 cells/well one day prior to transfection. […] Beta-gal activity was measured in extracts using a fluorogenic substrate (MUG, BIO-RAD FluorAce™ β-gal Reporter Assay, #170–3150). […]"}, "HeLa cells [3]": {"tested_on": "HeLa cells", "experiment": "Beta-gal ELISA apoptosis assay in transfected HeLa cells", "type": "cell-based, human", "details": "HeLa cells, 24 hours post-transfection", "experimental": "Because BAD Ser155 phosphorylation, like Ser136 phosphorylation, prevents BAD from binding to Bcl-XL (FIG. 1), it was possible that by analogy, Ser155 dephosphorylation promotes cell death. To test this idea, HeLa cells were co-transfected with BAD or various BAD serine mutants and a β-gal reporter plasmid. Twenty-four hours post-transfection, cell viability was analyzed by β-gal ELISA.\nTo test this idea, HeLa cells were again co-transfected with BAD or various BAD serine mutants and a β-gal reporter plasmid. Forskolin was then added to half of the cultures while the other half was left untreated. Beta-gal ELISAs were performed 24 hours post transfection. […] Thus, phosphorylation of Ser155 rescues cells from BAD-induced apoptosis, while substitution of Ser155 with a nonphosphorylatable residue results in increased cell death and the failure of cells to be protected from induced PKA activity.\nBeta-gal ELISA assays were performed using the β-gal ELISA system from Boehringer Mannheim, according to manufacture's instructions. Cells were transfected with BAD (or BAD mutant) and β-gal in a ratio of 5:1. The transfected cells were trypsinized and distributed into 96-well tissue culture plates. Twenty-four hours after transfection, cell extracts were obtained by lysing the cells in lysis buffer. Cell extracts (200 μl) were then added to anti-β-gal-coated microtiter plates (MTP). The MTPs were foil-covered and incubated for one hour at 37° C. Solutions were then decanted and the MTPs were washed, followed by the addition of 200 μl of anti-β-gal-DIG working solution, and incubation for an additional hour as described above. Solutions were again decanted, the MTPs washed and 200 μl of DIG-POD working solution were added. The MTPs were incubated for another hour at 37° C., the solution decanted, and the wells washed. 200 μl of substrate with enhancer were added to each well and incubated at room temperature until color development. The β-gal activity was measured by the absorbance of the sample at […]. Data were based on triplicate wells with standard deviations calculated."}, "[4]": {"tested_on": "BAD Ser155 phosphorylation in HeLa cells", "experiment": "BAD phosphorylation in HeLa cells (western blot band-shift / anti-phospho-Ser155 antibody)", "type": "cell-based, human", "details": "HeLa cells", "experimental": "A mammalian expression vector encoding mutant HA-BAD S155A, derived from the shorter murine BAD of SEQ ID NO:3, was constructed. HA-BAD S155A has an amino acid sequence wherein the serine at a position corresponding to Ser155 is substituted with alanine. A western blot was performed on WCL prepared from cells expressing the shorter murine BAD (SEQ ID NO:3), HA-BAD S112A, HA-BAD S136A, or HA-BAD S155A, and probed with anti-HA antibody.\nA western blot analysis, probed with anti-HA antibody, was performed on lysates produced from the Forskolin treated and untreated (control) cells to determine whether Forskolin could induce the phosphorylation BAD or mutant BAD.\nHeLa cells transiently expressing HA-BAD, HA-BAD S155A, HA-BAD S112A/S136A, or HA-BAD S112A/S136A/S155A were treated with Forskolin or a buffer control.\nThe HA-BAD S112A/S136A double mutant was transiently expressed in HeLa cells, and transfected cell cultures were treated with each of the GPCR ligands, individually and as a group. A western blot analysis, probed with anti-HA antibody, was performed on lysates produced from the treated and untreated (negative control) cells. […] Forskolin (FK) and no treatment (−) were positive and negative controls, respectively (FIG. 6(a), […], respectively).\nNon-transfected HeLa cells were treated with Forskolin or L-epinephrine, followed by western blot analysis of cell lysates using anti-BAD antibodies.\nTransformants were treated with L-epinephrine, then lysed and subjected to anti-HA western blot analysis.\nTo further test whether phosphorylation of Ser155 is dependent on the PI 3-kinase/Akt pathway, HeLa cells were transfected with the mutant HA-BAD S155A and pretreated with Wortmannin, an inhibitor of PI 3-kinase. These cells were then stimulated with epidermal growth factor (EGF), lysed and analyzed by western blot analysis.\nFor immunoprecipitation of all HA-BAD species, 1 μg of the anti-HA antibody was added to the cell lysates, and incubated at 4° C. for one hour. Protein G agarose (Pierce) was then added (50 μl/fraction of 50% slurry) and followed by a one hour incubation at 4° C. Beads were washed with RIPA buffer, boiled in loading buffer (2% SDS, 10% glycerol, 5% β-ME, 60 mM Tris, pH 6.8, 0.002% Bromophenol Blue) and loaded onto polyacrylamide gels. After electrophoresis, proteins were transferred to nitrocellulose membranes, and blots blocked in western wash buffer (40 mM Tris, pH 8.0, 150 mM NaCl, 0.2% NP-40) with 5% BSA for one hour at room temperature. Blots were incubated with primary antibody diluted in western wash buffer with 3% BSA at room temperature for 1–2 hours, washed with western wash buffer and incubated with secondary HRP-coupled antibody diluted in western wash buffer with 1.5% BSA, and washed extensively. Polypeptides were detected with the ECL chemiluminescence according to the manufacturers instructions (Amersham)."}},
  "data": [
    {"molecule": "HA-BAD S112A/S134A/S136A: HA-tagged mutant of shorter murine BAD, serines corresponding to Ser112, Ser134 and Ser136 substituted with alanine (protein, UniProt Q61337 1-204, looked up, variant S112A S134A S136A, HA tag, HA-tagged mutant of shorter murine BAD, serines corresponding to Ser112, Ser134 and Ser136 substituted with alanine) Bcl2-associated agonist of …: MGTPKQPSLAPAHALGLRKSDPGIRSLGSDAGGRRWRPAAQSMFQIPEFEPSEQEDASATDRGLGPSLTEDQPGPYLAPGLLGSNIHQQGRAATNSHHGGAGAMETRSRHSAYPAGTEEDEGMEEELSPFRGRARAAPPNLWAAQRYGRELRRMSDEFEGSFKGLPRPKSAGTATQMRQSAGWTRIIQSWWDRNLGKGGSTPSQ", "values": [
      {"measurement": "phosphorylation of expressed BAD mutant (lambda phosphatase-sensitive higher molecular weight band)", "setting": "[1]", "value": "does not eliminate the phosphorylation of BAD"}
    ]},
    {"molecule": "BAD S155D: BAD mutant, Ser155 replaced with aspartic acid to mimic the negatively charged phospho-Ser155 residue (protein, UniProt Q61337 1-204, looked up, variant S155D) Bcl2-associated agonist of …: MGTPKQPSLAPAHALGLRKSDPGIRSLGSDAGGRRWRPAAQSMFQIPEFEPSEQEDASATDRGLGPSLTEDQPGPYLAPGLLGSNIHQQGRAATNSHHGGAGAMETRSRHSSYPAGTEEDEGMEEELSPFRGRSRSAPPNLWAAQRYGRELRRMDDEFEGSFKGLPRPKSAGTATQMRQSAGWTRIIQSWWDRNLGKGGSTPSQ", "values": [
      {"measurement": "pro-apoptotic activity", "setting": "HeLa cells [2]", "value": "no pro-apoptotic activity"}
    ]},
    {"molecule": "BAD S136A: mutant of shorter murine BAD, serine corresponding to Ser136 substituted with alanine; HA- or GST-tagged (protein, UniProt Q61337 1-204, looked up, variant S136A, HA or GST tag, mutant of shorter murine BAD, serine corresponding to Ser136 substituted with alanine; HA- or GST-tagged) Bcl2-associated agonist of …: MGTPKQPSLAPAHALGLRKSDPGIRSLGSDAGGRRWRPAAQSMFQIPEFEPSEQEDASATDRGLGPSLTEDQPGPYLAPGLLGSNIHQQGRAATNSHHGGAGAMETRSRHSSYPAGTEEDEGMEEELSPFRGRSRAAPPNLWAAQRYGRELRRMSDEFEGSFKGLPRPKSAGTATQMRQSAGWTRIIQSWWDRNLGKGGSTPSQ", "values": [
      {"measurement": "effect of expressed BAD mutant on cellular survival / cell death", "setting": "HeLa cells [3]", "value": "next greatest effect"},
      {"measurement": "band-shift (phosphorylation) of expressed BAD construct in response to L-epinephrine", "setting": "[4]", "value": "significant band-shift"}
    ]}
  ]
}
